In article PMC3930741:

Molecular target: recombinant Tg-p43 (E. coli-derived) (Toxoplasma gondii)
Assay: cross-linking; purified E. coli-derived Tg-p43 at 1 mg/ml in PBS with 10% glycerol, 0.25% glutaraldehyde on ice, stopped with Tris-HCl pH 8; Coomassie-stained SDS-PAGE; beta-amylase and carbonic anhydrase for comparison

Question: Which stoichiometry N does the source give for “recombinant Tg-p43 (E. coli-derived) (natural protein)” here?
Answer: 2
